This assay deals with T1, CD70 expressed on the surface of 786-O renal cell carcinoma cells (Homo sapiens, UniProt P32970).
T1 construct: natively expressing CD70+ human cancer cell line 786-0 cells; endogenous in cells; host or cells: 786-O (ATCC CRL-1932), A-498 (HTB-44), ACHN (CRL-1611), Caki-1 (HTB-46), Caki-2 (HTB-47)
T1 sequence (P32970 1-193): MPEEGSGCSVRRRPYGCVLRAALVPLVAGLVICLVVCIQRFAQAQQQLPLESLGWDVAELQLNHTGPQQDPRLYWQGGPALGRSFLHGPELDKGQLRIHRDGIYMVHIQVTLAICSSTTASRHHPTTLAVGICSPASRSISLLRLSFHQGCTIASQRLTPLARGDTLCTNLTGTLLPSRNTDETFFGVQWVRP
Kind of assay: Flow cytometry binding to 786-O cells. As to the method: Anti-CD70 antibodies were tested for binding to renal cell carcinoma cells expressing CD70 on their cell surface by flow cytometry.
The renal cell carcinoma cell lines A-498 (ATCC Accession No. HTB-44), 786-O (ATCC Accession No. CRL-1932), ACHN (ATCC Accession No. CRL-1611), Caki-1 (ATCC Accession No. HTB-46) and Caki-2 (ATCC Accession No. HTB-47) were each tested for antibody binding. Binding of the HuMAb 2H5 anti-CD70 human monoclonal antibody was assessed by incubating 1×10^5 cells with 2H5 at a concentration of 1 μg/ml. The cells were washed and binding was detected with a FITC-labeled anti-human IgG Ab. Flow cytometric analyses were performed using a FACSCalibur flow cytometry (Becton Dickinson, San Jose, Calif.). The anti-CD70 monoclonal antibody 2H5 bound to the renal carcinoma cell lines A-498, 786-O, ACHN, Caki-1 and Caki-2.
The renal cell carcinoma cell lines 786-O and A-498 were tested for binding of the HuMAb anti-CD70 human monoclonal antibodies 2H5, 8B5, 10B4 and 18E7 at different concentrations. Binding of the anti-CD70 human monoclonal antibodies was assessed by incubating 5×10^5 cells with antibody at a starting concentration of 50 μg/ml and serially diluting the antibody at a 1:3 dilution. The cells were washed and binding was detected with a PE-labeled anti-human IgG Ab. Flow cytometric analyses were performed using a FACSCalibur flow cytometry (Becton Dickinson, San Jose, Calif.). The results are shown in FIG. 18A (786-O) and FIG. 18B (A-498). […]
Binding of the HuMAb 2H5 and 69A7 anti-CD70 human monoclonal antibodies to the renal cell carcinoma cell line 786-O was assessed by incubating 2×10^5 cells with either 2H5 or 69A7 at a concentration of 10 μg/ml. […] The cells were washed and binding was detected with a FITC-labeled anti-human IgG Ab. […]
The renal cell carcinoma cell line 786-O was tested for binding of the HuMAb anti-CD70 human monoclonal antibody 69A7 at different concentrations. Binding of the anti-CD70 human monoclonal antibodies was assessed by incubating 5×10^5 cells with antibody at a starting concentration of 10 μg/ml and serially diluting the antibody at a 1:3 dilution. The cells were washed and binding was detected with a PE-labeled anti-human IgG Ab. […]
The Daudi lymphoma cell line and 786-O renal carcinoma cell were further tested for antibody binding. Binding of the HuMAb 69A7 anti-CD70 human monoclonal antibody was assessed by incubating 2×10^5 cells with 69A7 at a concentration of 1 μg/ml. The cells were washed and binding was detected with a FITC-labeled anti-human IgG Ab. […] The anti-CD70 monoclonal antibody 69A7 bound to the Daudi lymphoma cell line and 786-O renal carcinoma cell line, as measured by the mean fluorescent intensity (MFI) of staining. […]
A general note: A flow cytometer gives signals particle by particle.

Changes are numbered by the printed parent chain.

B1: anti-CD70 human monoclonal antibody 69A7 (antibody, V domains shown)
VH: QVQLQESGPGLVKPSETLSLTCTVSGGSVSSDYYYWSWIRQPPGKGLEWLGYIYYSGSTNYNPSLKSRVTISVDTSKNQFSLKLRSVTTADTAVYYCARGDGDYGGNCFDYWGQGTLVTVSS
VL: EIVLTQSPATLSLSPGERATLSCRASQSVSSYLAWYQQKPGQAPRLLIFDASNRATGIPARFSGSGSGTDFTLTISSLEPEDFAVYYCQQRSNWPLTFGGGTKVEIK
notes: Human IgG from hybridoma; also called HuMAb 69A7; FITC-conjugated 69A7
For the molecule B1, the “binding to 786-O at different concentrations (MFI)” value (1:3 serial dilution from 50 μg/ml (69A7: from 10 μg/ml)) is recorded as “concentration dependent”. Also, the “binding to 786-O cells” value (antibody 1 μg/ml, FITC-labeled anti-human IgG) is “bound” and the “binding to 786-O cells” value (antibody 10 μg/ml) is listed as “bound”.

B2: 2H5 NF: 2H5 HuMAb lacking fucosyl residues, expressed in CHO cell line Ms704-PF (antibody, V domains shown)
VH: QVQLVESGGGVVQPGRSLRLSCAASGFTFSSYIMHWVRQAPGKGLEWVAVISYDGRNKYYADSVKGRFTISRDNSKNTLYLQMNSLRAEDTAVYYCARDTDGYDFDYWGQGTLVTVSS
VL: B1 VL with F49Y, S92T
In the case of B2, the “relative binding to 786-0 cells” value (30 to 0.01 ug/ml, flow cytometry) is “binds at lower concentration than 1F4 and 1F4 NF”.
